Test system: Escherichia coli TOP10
Assay: shrunken log2 fold change of peptide-encoding DNA abundance (4.5 h post-induction vs induction); higher = less antimicrobial activity (less host growth inhibition)
Conditions: time post-induction: 4.5 h; library: site-saturation at positions 5, 18, 19, 20
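Further: peptides expressed intracellularly from a pBAD plasmid library in pooled LB shake-flask culture, induced with 0.3% L-arabinose, DNA abundance read by NGS, three biological replicates, DESeq2 with apeglm shrinkage.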

Sequence	shrunken log2 fold change
RRIRLRPPRLPRPRPRPRQPPRP	0.111
RRIRVRPPRLPRPRPRPDMRPRP	-0.437
RRIRPRPPRLPRPRPRPSWQPRP	-0.0441
RRIRRRPPRLPRPRPRPCAMPRP	-0.0039
RRIRKRPPRLPRPRPRPQAVPRP	0.0562
RRIRYRPPRLPRPRPRPMCMPRP	-0.214
RRIRCRPPRLPRPRPRPLFLPRP	-0.601
RRIRVRPPRLPRPRPRPYNGPRP	-0.514
RRIRGRPPRLPRPRPRPYEDPRP	-0.017
RRIRNRPPRLPRPRPRPMSTPRP	-0.0292
RRIRWRPPRLPRPRPRPERGPRP	0.683
RRIRRRPPRLPRPRPRPEASPRP	0.75
RRIRYRPPRLPRPRPRPVTYPRP	-0.41
RRIRLRPPRLPRPRPRPVTHPRP	-0.305
RRIRWRPPRLPRPRPRPVMNPRP	-0.133
RRIRERPPRLPRPRPRPSAQPRP	-0.167
RRIRGRPPRLPRPRPRPLAIPRP	0.567
RRIRSRPPRLPRPRPRPLCAPRP	0.281
RRIRFRPPRLPRPRPRPWENPRP	-0.0884
RRIRHRPPRLPRPRPRPTHGPRP	0.125
RRIRRRPPRLPRPRPRPCYHPRP	-0.169
RRIRKRPPRLPRPRPRPVMIPRP	0.0956
RRIRKRPPRLPRPRPRPTVWPRP	0.548
RRIRGRPPRLPRPRPRPSDDPRP	0.108
RRIRHRPPRLPRPRPRPSMWPRP	-0.095

Sequence	shrunken log2 fold change
RRIRARPPRLPRPRPRPVTRPRP	0.35
RRIRRRPPRLPRPRPRPGPFPRP	0.162
RRIRTRPPRLPRPRPRPRTVPRP	0.00464
RRIRSRPPRLPRPRPRPLTWPRP	-0.104
RRIRWRPPRLPRPRPRPVILPRP	-0.208
RRIRLRPPRLPRPRPRPWNMPRP	-0.31
RRIRFRPPRLPRPRPRPQWSPRP	-0.485
RRIRLRPPRLPRPRPRPGMHPRP	0.299
RRIRARPPRLPRPRPRPMWAPRP	0.557
RRIRARPPRLPRPRPRPPPAPRP	1.25
RRIRKRPPRLPRPRPRPQHYPRP	-0.0715
RRIRGRPPRLPRPRPRPKIQPRP	0.369
RRIRGRPPRLPRPRPRPAMKPRP	0.311
RRIRPRPPRLPRPRPRPAQLPRP	0.237
RRIRKRPPRLPRPRPRPECFPRP	0.7
RRIRNRPPRLPRPRPRPEKKPRP	-0.113
RRIRVRPPRLPRPRPRPCASPRP	0.116
RRIRTRPPRLPRPRPRPNGLPRP	-0.00146
RRIRSRPPRLPRPRPRPISKPRP	-0.211
RRIRYRPPRLPRPRPRPWKSPRP	-0.118
RRIRMRPPRLPRPRPRPSTMPRP	-0.283
RRIRERPPRLPRPRPRPESYPRP	0.0161
RRIRFRPPRLPRPRPRPSVGPRP	-0.453
RRIRGRPPRLPRPRPRPCFSPRP	0.0442
RRIRCRPPRLPRPRPRPQNQPRP	-0.00207

Sequence	shrunken log2 fold change
RRIRERPPRLPRPRPRPQCWPRP	-0.0051
RRIRYRPPRLPRPRPRPTFWPRP	0.0421
RRIRARPPRLPRPRPRPNKCPRP	-0.311
RRIRYRPPRLPRPRPRPHIRPRP	-0.206
RRIRDRPPRLPRPRPRPENPPRP	0.783
RRIRCRPPRLPRPRPRPMTLPRP	-0.135
RRIRVRPPRLPRPRPRPHDPPRP	0.0847
RRIRKRPPRLPRPRPRPQKIPRP	-0.0746
RRIRRRPPRLPRPRPRPKWQPRP	-0.175
RRIRTRPPRLPRPRPRPMSTPRP	-0.0153
RRIRYRPPRLPRPRPRPRPCPRP	-0.117
RRIRNRPPRLPRPRPRPRERPRP	0.0512
RRIRERPPRLPRPRPRPLMYPRP	-0.0754
RRIRERPPRLPRPRPRPVYNPRP	-0.0493
RRIRSRPPRLPRPRPRPLSQPRP	-0.00748
RRIRDRPPRLPRPRPRPFWPPRP	0.227
RRIRYRPPRLPRPRPRPPTHPRP	-0.251
RRIRHRPPRLPRPRPRPTCHPRP	-0.647
RRIRARPPRLPRPRPRPHLEPRP	-0.124
RRIRGRPPRLPRPRPRPQQDPRP	0.357
RRIRVRPPRLPRPRPRPVKWPRP	-0.0595
RRIRCRPPRLPRPRPRPCCDPRP	-0.27
RRIRVRPPRLPRPRPRPLVQPRP	-0.137
RRIRLRPPRLPRPRPRPGMWPRP	0.164
RRIRCRPPRLPRPRPRPMRHPRP	-0.0878

— the supplement of paper PMC9112550, “Optimization of the antimicrobial peptide Bac7 by deep mutational scanning” (BMC Biology, 2022)
